B1: Axial regulator YABBY 4 (Arabidopsis thaliana (Mouse-ear cress)), Q9LDT3 (parent)
chain: MTKLPNMTTTLNHLFDLPGQICHVQCGFCTTILLVSVPFTSLSMVVTVRCGHCTSLLSVNLMKASFIPLHLLASLSHLDETGKEEVAATDGVEEEAWKVNQEKENSPTTLVSSSDNEDEDVSRVYQVVNKPPEKRQRAPSAYNCFIKEEIRRLKAQNPSMAHKEAFSLAAKNWAHFPPAHNKRAASDQCFCEEDNNAILPCNVFEDHEESNNGFRERKAQRHSIWGKSPFE
partner: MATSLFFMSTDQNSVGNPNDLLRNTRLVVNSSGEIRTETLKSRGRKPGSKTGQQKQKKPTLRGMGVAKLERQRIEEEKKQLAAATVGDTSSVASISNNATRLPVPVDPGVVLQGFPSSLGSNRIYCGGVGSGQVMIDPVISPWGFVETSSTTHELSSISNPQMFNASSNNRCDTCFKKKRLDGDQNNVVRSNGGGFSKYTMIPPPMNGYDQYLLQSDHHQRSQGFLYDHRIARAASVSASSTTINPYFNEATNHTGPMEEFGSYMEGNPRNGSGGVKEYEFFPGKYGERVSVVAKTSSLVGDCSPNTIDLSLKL

Variants of: B1
Settings: with spl_arath SPL

Row | Variant | effect of a mutation on the interaction
1 | C29S | decreasing interaction
